Columns and labels:
[1] = target: T1, α3 subunit of the Na+/K+-ATPase, endogenous on mouse cells (cortical neurons, cortical slices, cardiac … (mouse, UniProt Q6PIC6 1-1013)); experiment: cell-based or functional assay
[2] = target: T1, α3 subunit of the Na+/K+-ATPase, …; experiment: competition against C-Ag20z8 on live cortical neurons, NIH Image analysis of immunofluorescence; competitor C-Ag20z8

B1: C-Ag20z8, 20-kD COOH-terminal fragment of mouse agrin, z8 splice variant (ligand, not shown: small tags and cut ends)
chain: MDPRTYIEYLNAVTESELTNEIPAEKALQSNHFELTLRTEATQGWLVLWIGKAAERADYMALAIVDGHLQLSYDLASQPVVLRSTVKVNTNRWLRVRAHREHREGSLQVGNEAPVTSSSPLGATQLDTDGALWLGGLQKLPVGQPLPKAYGTGFVGCLRNVVGHRQLHLLEDAVTKPELRPCPTLNSKLGPEQKLISEEDLNSAVDHHHHHH
[1]
  EC50 of c-fos induction (Fos in situ enzyme-linked immunoassay, cortical cultures): 11.2 pM
  glutamate-induced Fos expression of agrin-deficient neurons grown 2 d in 5 nM fragment: 2.2 fold

B2: C-Ag15, 15-kD COOH-terminal fragment of mouse agrin (37 amino acids deleted from the NH2 terminus of C-Ag20) (ligand, not shown: small tags and cut ends)
chain: MDPWIGKAAERADYMALAIVDGHLQLSYDLASQPVVLRSTVKVNTNRWLRVRAHREHREGSLQVGNEAPVTSSSPLGATQLDTDGALWLGGLQKLPVGQPLPKAYGTGFVGCLRNVVGHRQLHLLEDAVTKPELRPCPTLNSKLGPEQKLISEEDLNSAVDHHHHHH
[1]
  IC50 of inhibition of c-fos induction by 50 pM C-Ag95z8 (cortical cultures, single-site competition model): 64.5 pM

B3: rC-Agy4z8, soluble 95-kD COOH-terminal fragment of rat agrin, y4 z8 (ligand, UniProt P25304-5 1153-1951, looked up)
chain: AATGTTAAMATARATTVSRLPASSVTPRVYPSHTSRPVGRTTAPPTTRRPPTTATNMDRPRTPGHQQPSKSCDSQPCLHGGTCQDQDSGKGFTCSCTAGRGGSVCEKVQPPSMPAFKGHSFLAFPTLRAYHTLRLALEFRALETEGLLLYNGNARGKDFLALALLDGRVQFRFDTGSGPAVLTSLVPVEPGRWHRLELSRHWRQGTLSVDGETPVVGESPSGTDGLNLDTNLYVGGIPEEQVAMVLDRTSVGVGLKGCIRMLDINNQQLELSDWQRAAVQSSGVGECGDHPCLPNPCHGGALCQALEAGMFLCQCPPGRFGPTCADEKSPCQPNPCHGAAPCRVLSSGGAKCECPLGRSGTFCQTVLETAGSRPFLADFNGFSYLELKGLHTFERDLGEKMALEMVFLARGPSGLLLYNGQKTDGKGDFVSLALHNRHLEFCYDLGKGAAVIRSKEPIALGTWVRVFLERNGRKGALQVGDGPRVLGESPKSRKVPHTMLNLKEPLYIGGAPDFSKLARGAAVSSGFSGVIQLVSLRGHQLLTQEHVLRAVDVSPFADHPCTQALGNPCLNGGSCVPREATYECLCPGGFSGLHCEKGLVEKSVGDLETLAFDGRTYIEYLNAVIESPETLDSRALFSEKALQSNHFELSLRTEATQGLVLWIGKAAERADYMALAIVDGHLQLSYDLGSQPVVLRSTVKVNTNRWLRIRAHREHREGSLQVGNEAPVTGSSPLGATQLDTDGALWLGGLQKLPVGQALPKAYGTGFVGCLRDVVVGHRQLHLLEDAVTKPELRPCPTP
notes: domain: soluble 95-kD COOH-terminal fragment; Harvested in medium conditioned by transiently transfected COS-7 cells; concentration only estimated; also called Rat C-Ag4,8; rC-Ag95y4z8
[2]
  reduction of labeling (mean pixel intensity) at a 1:1 molar ratio: ~30%

B4: C-Ag20z0, 20-kD COOH-terminal fragment of mouse agrin, z0 splice variant (ligand, not shown: small tags and cut ends)
chain: MDPRTYIEYLNAVTESEKALQSNHFELTLRTEATQGWLVLWIGKAAERADYMALAIVDGHLQLSYDLASQPVVLRSTVKVNTNRWLRVRAHREHREGSLQVGNEAPVTSSSPLGATQLDTDGALWLGGLQKLPVGQPLPKAYGTGFVGCLRNVVGHRQLHLLEDAVTKPELRPCPTLNSKLGPEQKLISEEDLNSAVDHHHHHH
[1]
  EC50 of c-fos induction (Fos in situ enzyme-linked immunoassay, cortical cultures): 13.3 pM
  glutamate-induced Fos expression of agrin-deficient neurons grown 2 d in 5 nM fragment: 2.2 fold

Source: patent US20100095387A1 (published 2010)
